Assay results as given in article PMC9482650, “Quantitative fragmentomics allow affinity mapping of interactomes” (Nature Communications, 2022).

T1: MPDZ_10, O75970
T1 sequence (O75970 1624-1722, limits assumed, looked up): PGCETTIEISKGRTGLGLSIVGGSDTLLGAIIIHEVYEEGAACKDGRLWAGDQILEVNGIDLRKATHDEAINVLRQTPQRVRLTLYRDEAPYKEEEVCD

T2: MPP7, Q5T2T1
T2 sequence (Q5T2T1 134-230, limits assumed, looked up): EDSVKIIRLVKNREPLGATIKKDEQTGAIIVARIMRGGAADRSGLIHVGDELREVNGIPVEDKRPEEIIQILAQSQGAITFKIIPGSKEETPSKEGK

T3: RADIL, Q96JH8
T3 sequence (Q96JH8 971-1071, limits assumed, looked up): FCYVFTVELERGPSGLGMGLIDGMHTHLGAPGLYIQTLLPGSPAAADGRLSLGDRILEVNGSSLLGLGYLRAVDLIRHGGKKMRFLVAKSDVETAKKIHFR

T4: ARHGAP21, Q5T5U3
T4 sequence (Q5T5U3 45-169, limits assumed, looked up): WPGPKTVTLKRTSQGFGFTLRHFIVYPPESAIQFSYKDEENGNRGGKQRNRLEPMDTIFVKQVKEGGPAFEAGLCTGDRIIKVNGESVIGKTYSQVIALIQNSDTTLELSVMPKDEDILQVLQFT

T5: NHERF3_4, Q5T2W1
T5 sequence (Q5T2W1 373-468, limits assumed, looked up): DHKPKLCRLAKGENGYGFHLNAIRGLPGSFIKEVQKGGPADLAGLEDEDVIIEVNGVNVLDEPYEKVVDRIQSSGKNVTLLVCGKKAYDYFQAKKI

T6: CARD11, Q9BXL7
T6 sequence (Q9BXL7 662-765, limits assumed, looked up): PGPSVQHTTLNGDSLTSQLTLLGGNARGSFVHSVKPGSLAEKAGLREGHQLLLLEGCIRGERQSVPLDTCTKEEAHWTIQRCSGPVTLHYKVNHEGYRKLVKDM

T7: DVL3, Q92997
T7 sequence (Q92997 244-331, limits assumed, looked up): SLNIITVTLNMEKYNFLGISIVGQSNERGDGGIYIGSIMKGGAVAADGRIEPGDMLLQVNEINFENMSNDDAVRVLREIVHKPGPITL

T8: APBA3_1, O96018
T8 sequence (O96018 389-490, limits assumed, looked up): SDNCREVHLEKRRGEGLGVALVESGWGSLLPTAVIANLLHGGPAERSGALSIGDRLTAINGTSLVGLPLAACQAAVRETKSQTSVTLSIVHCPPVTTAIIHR


Tests used:
Experiment in all cases: holdup assay
Set-up in all cases: key: below the threshold = too weak to quantify, mostly under pKd 3.1 to 4
Conditions in all cases: plain residues with an end cap or a label only (N-terminal biotin on a linker: ado-ado)
MPDZ_10, O75970 = target: T1, MPDZ_10, O75970
MAGI3_2, Q5TCQ9 = target: MAGI3_2, Q5TCQ9
ARHGEF12, Q9NZN5-2 = target: ARHGEF12, Q9NZN5-2
MPP7, Q5T2T1 = target: T2, MPP7, Q5T2T1
PTPN3, P26045 = target: PTPN3, P26045
LDB3, O75112 = target: LDB3, O75112
DLG4_1, P78352 = target: DLG4_1, P78352
LNX1_2, Q8TBB1 = target: LNX1_2, Q8TBB1
MAGI2_3, Q86UL8 = target: MAGI2_3, Q86UL8
FRMPD2_3, Q68DX3 = target: FRMPD2_3, Q68DX3
RADIL, Q96JH8 = target: T3, RADIL, Q96JH8
PDZRN4_1, Q6ZMN7 = target: PDZRN4_1, Q6ZMN7
FRMPD4, Q14CM0 = target: FRMPD4, Q14CM0
MAGI1_1, Q96QZ7 = target: MAGI1_1, Q96QZ7
ARHGAP21, Q5T5U3 = target: T4, ARHGAP21, Q5T5U3
NHERF3_4, Q5T2W1 = target: T5, NHERF3_4, Q5T2W1
GRIP2_5, Q9C0E4 = target: GRIP2_5, Q9C0E4
CARD11, Q9BXL7 = target: T6, CARD11, Q9BXL7
Inadl_10, Q8NI35 = target: Inadl_10, Q8NI35
SCRIB_3, Q14160 = target: SCRIB_3, Q14160
MAGI2_2, Q86UL8 = target: MAGI2_2, Q86UL8
DVL3, Q92997 = target: T7, DVL3, Q92997
Inadl_6, Q8NI35 = target: Inadl_6, Q8NI35
GORASP1, Q9BQQ3 = target: GORASP1, Q9BQQ3
DLG2_2, Q15700 = target: DLG2_2, Q15700
MAGI2_4, Q86UL8 = target: MAGI2_4, Q86UL8
NOS1, P29475 = target: NOS1, P29475
APBA3_1, O96018 = target: T8, APBA3_1, O96018
Inadl_9, Q8NI35 = target: Inadl_9, Q8NI35
LNX1_1, Q8TBB1 = target: LNX1_1, Q8TBB1
LNX1_1, Q8TBB1, sequence (Q8TBB1 261-371): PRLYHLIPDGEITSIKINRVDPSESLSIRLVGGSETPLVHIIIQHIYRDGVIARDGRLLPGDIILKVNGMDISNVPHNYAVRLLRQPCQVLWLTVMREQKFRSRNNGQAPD

DLG2_2, Q15700, sequence (Q15700 189-283): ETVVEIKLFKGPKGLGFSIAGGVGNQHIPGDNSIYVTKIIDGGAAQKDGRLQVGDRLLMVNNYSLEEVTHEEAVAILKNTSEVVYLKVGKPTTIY
MAGI3_2, Q5TCQ9, sequence (Q5TCQ9 398-503): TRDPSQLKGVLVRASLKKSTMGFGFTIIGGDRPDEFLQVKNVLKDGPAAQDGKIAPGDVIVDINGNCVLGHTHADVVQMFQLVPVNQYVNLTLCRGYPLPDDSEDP
MAGI2_2, Q86UL8, sequence (Q86UL8 410-522): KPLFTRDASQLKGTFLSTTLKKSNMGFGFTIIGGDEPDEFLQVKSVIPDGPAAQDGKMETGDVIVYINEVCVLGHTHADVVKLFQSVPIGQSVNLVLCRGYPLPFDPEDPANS
PTPN3, P26045, sequence (P26045 505-587): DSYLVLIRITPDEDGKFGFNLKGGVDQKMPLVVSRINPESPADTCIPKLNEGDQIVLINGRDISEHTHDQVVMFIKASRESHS
Inadl_10, Q8NI35, sequence (Q8NI35 1673-1763): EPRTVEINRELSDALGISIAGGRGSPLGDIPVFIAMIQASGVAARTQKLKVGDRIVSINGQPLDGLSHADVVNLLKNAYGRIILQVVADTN
FRMPD2_3, Q68DX3, sequence (Q68DX3 1073-1166): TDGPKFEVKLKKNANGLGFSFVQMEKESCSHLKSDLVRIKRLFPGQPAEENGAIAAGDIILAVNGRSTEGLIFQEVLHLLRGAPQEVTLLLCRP
LDB3, O75112, sequence (O75112 1-94): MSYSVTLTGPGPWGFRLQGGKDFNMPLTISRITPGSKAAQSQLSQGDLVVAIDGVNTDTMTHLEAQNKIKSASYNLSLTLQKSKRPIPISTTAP
GORASP1, Q9BQQ3, sequence (Q9BQQ3 1-208): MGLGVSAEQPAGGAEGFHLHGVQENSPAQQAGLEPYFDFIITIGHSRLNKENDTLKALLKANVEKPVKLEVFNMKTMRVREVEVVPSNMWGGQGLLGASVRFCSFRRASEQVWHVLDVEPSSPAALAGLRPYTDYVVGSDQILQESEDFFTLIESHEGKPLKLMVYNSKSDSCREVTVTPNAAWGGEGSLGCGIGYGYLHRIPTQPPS
MAGI2_4, Q86UL8, sequence (Q86UL8 772-865): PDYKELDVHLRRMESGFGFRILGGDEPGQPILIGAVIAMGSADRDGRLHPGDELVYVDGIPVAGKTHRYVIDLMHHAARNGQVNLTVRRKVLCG
MAGI1_1, Q96QZ7, sequence (Q96QZ7 1-106): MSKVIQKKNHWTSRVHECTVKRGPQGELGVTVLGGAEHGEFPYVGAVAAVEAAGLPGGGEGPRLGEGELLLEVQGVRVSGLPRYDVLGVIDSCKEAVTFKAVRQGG
DLG4_1, P78352, sequence (P78352 62-152): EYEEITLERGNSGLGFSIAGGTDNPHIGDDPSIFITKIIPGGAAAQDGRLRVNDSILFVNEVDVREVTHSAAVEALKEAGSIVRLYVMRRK
FRMPD4, Q14CM0, sequence (Q14CM0 67-160): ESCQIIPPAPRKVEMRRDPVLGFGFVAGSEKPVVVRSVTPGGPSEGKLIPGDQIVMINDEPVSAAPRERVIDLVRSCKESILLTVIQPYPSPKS
GRIP2_5, Q9C0E4, sequence (Q9C0E4 544-642): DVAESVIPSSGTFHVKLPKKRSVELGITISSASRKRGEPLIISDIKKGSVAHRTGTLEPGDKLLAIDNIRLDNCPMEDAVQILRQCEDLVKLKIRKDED
Inadl_6, Q8NI35, sequence (Q8NI35 1058-1167): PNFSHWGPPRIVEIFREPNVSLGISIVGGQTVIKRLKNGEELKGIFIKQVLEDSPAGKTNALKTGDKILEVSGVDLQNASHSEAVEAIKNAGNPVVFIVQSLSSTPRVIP
Inadl_9, Q8NI35, sequence (Q8NI35 1530-1615): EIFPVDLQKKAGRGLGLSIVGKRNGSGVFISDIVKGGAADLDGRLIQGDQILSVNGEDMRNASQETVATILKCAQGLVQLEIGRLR
PDZRN4_1, Q6ZMN7, sequence (Q6ZMN7 213-318): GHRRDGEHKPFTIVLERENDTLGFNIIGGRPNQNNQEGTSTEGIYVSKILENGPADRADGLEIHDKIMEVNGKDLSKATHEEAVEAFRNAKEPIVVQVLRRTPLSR
MAGI2_3, Q86UL8, sequence (Q86UL8 600-682): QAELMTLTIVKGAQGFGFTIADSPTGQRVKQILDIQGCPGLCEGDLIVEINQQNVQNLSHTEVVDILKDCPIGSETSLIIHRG
ARHGEF12, Q9NZN5-2, sequence (Q9NZN5 other isoform, or with tags, fused parts or gaps): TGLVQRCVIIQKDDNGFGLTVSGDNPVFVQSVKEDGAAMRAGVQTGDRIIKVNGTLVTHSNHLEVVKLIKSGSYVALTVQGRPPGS
LNX1_2, Q8TBB1, sequence (Q8TBB1 371-470): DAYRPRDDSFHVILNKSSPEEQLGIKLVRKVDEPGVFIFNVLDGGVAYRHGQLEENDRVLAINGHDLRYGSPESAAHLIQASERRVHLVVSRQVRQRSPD
SCRIB_3, Q14160, sequence (Q14160 999-1103): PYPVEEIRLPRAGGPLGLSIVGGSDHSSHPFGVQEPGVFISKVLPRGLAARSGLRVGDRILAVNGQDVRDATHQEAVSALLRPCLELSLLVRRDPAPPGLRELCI
NOS1, P29475, sequence (P29475 9-101): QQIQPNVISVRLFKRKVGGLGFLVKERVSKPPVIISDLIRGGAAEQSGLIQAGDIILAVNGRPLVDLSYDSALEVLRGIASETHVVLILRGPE

| Binder | pKd (MPDZ_10, O75970) | pKd (MAGI3_2, Q5TCQ9) | pKd (ARHGEF12, Q9NZN5-2) | pKd (MPP7, Q5T2T1) | pKd (PTPN3, P26045) | pKd (LDB3, O75112) | pKd (DLG4_1, P78352) | pKd (LNX1_2, Q8TBB1) | pKd (MAGI2_3, Q86UL8) | pKd (FRMPD2_3, Q68DX3) | pKd (RADIL, Q96JH8) | pKd (PDZRN4_1, Q6ZMN7) | pKd (FRMPD4, Q14CM0) | pKd (MAGI1_1, Q96QZ7) | pKd (ARHGAP21, Q5T5U3) | pKd (NHERF3_4, Q5T2W1) | pKd (GRIP2_5, Q9C0E4) | pKd (CARD11, Q9BXL7) | pKd (Inadl_10, Q8NI35) | pKd (SCRIB_3, Q14160) | also measured |
| --- | --- | --- | --- | --- | --- | --- | --- | --- | --- | --- | --- | --- | --- | --- | --- | --- | --- | --- | --- | --- | --- |
| YPKQMPLSQV [FZD8, Q9H461] | 3.7 | 4.44 | 4.09 | below the threshold | below the threshold | below the threshold | 3.69 | below the threshold | below the threshold | below the threshold | 3.7 | below the threshold | below the threshold | below the threshold | 3.94 | below the threshold | below the threshold | below the threshold | below the threshold | below the threshold | pKd (MAGI2_2, Q86UL8): 4.29; pKd (DVL3, Q92997): below the threshold; pKd (Inadl_6, Q8NI35): below the threshold; pKd (GORASP1, Q9BQQ3): below the threshold; pKd (DLG2_2, Q15700): below the threshold; pKd (MAGI2_4, Q86UL8): below the threshold; pKd (NOS1, P29475): below the threshold; pKd (APBA3_1, O96018): below the threshold; pKd (Inadl_9, Q8NI35): below the threshold; pKd (LNX1_1, Q8TBB1): 3.74 |
| LGHTPFVDEL [UQCRC2, P22695] | below the threshold | below the threshold | below the threshold | below the threshold | 4.1 | below the threshold | below the threshold | below the threshold | below the threshold | below the threshold | 3.66 | below the threshold | 3.77 | below the threshold | 3.91 | below the threshold | below the threshold | 3.53 | below the threshold | below the threshold | pKd (MAGI2_2, Q86UL8): below the threshold; pKd (DVL3, Q92997): below the threshold; pKd (Inadl_6, Q8NI35): below the threshold; pKd (GORASP1, Q9BQQ3): below the threshold; pKd (DLG2_2, Q15700): below the threshold; pKd (MAGI2_4, Q86UL8): below the threshold; pKd (NOS1, P29475): below the threshold; pKd (APBA3_1, O96018): below the threshold; pKd (Inadl_9, Q8NI35): below the threshold; pKd (LNX1_1, Q8TBB1): below the threshold |
